In article PMC3320877 (2012):

What was measured:
[1] = target: T1, recombinant His-tagged insect-cell expressed CCR5, detergent-solubilised (UniProt P51681 1-352); experiment: SPR; 1:1 binding model
[2] = target: T1, recombinant His-tagged insect-cell …; experiment: SPR; two binding site model, KD2 (second site)
[3] = target: T1, recombinant His-tagged insect-cell …; experiment: SPR; two binding site model, KD1

T1 sequence (P51681 whole entry): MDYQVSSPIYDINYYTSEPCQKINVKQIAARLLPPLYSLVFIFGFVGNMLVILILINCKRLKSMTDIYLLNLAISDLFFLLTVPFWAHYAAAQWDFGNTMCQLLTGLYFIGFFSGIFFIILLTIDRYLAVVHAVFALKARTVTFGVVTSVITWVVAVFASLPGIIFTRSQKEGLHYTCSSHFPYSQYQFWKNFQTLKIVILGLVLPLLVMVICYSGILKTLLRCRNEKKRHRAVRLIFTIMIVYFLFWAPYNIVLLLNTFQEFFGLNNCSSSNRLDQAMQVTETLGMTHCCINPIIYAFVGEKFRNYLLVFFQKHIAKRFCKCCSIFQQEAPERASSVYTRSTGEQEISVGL

B1: visfatin (recombinant) (natural protein)
chain: MNPAAEAEFNILLATDSYKVTHYKQYPPNTSKVYSYFECREKKTENSKLRKVKYEETVFYGLQYILNKYLKGKVVTKEKIQEAKDVYKEHFQDDVFNEKGWNYILEKYDGHLPIEIKAVPEGFVIPRGNVLFTVENTDPECYWLTNWIETILVQSWYPITVATNSREQKKILAKYLLETSGNLDGLEYKLHDFGYRGVSSQETAGIGASAHLVNFKGTDTVAGLALIKKYYGTKDPVPGYSVPAAEHSTITAWGKDHEKDAFEHIVTQFSSVPVSVVSDSYDIYNACEKIWGEDLRHLIVSRSTQAPLIIRPDSGNPLDTVLKVLEILGKKFPVTENSKGYKLLPPYLRVIQGDGVDINTLQEIVEGMKQKMWSIENIAFGSGGGLLQKLTRDLLNCSFKCSYVVTNGLGINVFKDPVADPNKRSKKGRLSLHRTPAGNFVTLEEGKGDLEEYGQDLLHTVFKNGKVTKSYSFDEIRKNAQLNIELEAAHH
Work on B1 yielded a Kd [1] of 5000 nM, a Kd [2] of 600 nM and a Kd [3] of 2 nM.
